Assays:
[1] = target: T1, OPTC (Homo sapiens (Human), UniProt Q9UBM4 20-332); experiment: ELISA
T1 sequence: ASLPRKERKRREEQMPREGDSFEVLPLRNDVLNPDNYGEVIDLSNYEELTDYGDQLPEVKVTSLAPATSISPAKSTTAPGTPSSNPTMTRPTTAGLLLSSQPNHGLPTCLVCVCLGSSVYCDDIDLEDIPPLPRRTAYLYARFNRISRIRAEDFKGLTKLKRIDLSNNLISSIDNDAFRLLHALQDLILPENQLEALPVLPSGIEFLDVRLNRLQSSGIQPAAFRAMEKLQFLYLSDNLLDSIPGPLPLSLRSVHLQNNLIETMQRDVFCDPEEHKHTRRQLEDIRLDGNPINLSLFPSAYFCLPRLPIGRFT

[2] = target: T2, DKK4 (Homo sapiens (Human), UniProt Q9UBT3 19-224); experiment: ELISA
T2 sequence: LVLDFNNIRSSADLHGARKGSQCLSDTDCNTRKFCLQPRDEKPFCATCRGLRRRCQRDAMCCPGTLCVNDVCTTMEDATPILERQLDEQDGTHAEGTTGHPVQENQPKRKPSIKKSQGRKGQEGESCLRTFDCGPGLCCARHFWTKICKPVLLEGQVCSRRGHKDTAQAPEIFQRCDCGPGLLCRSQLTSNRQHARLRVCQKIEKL

[3] = target: T3, GREM1 (Homo sapiens (Human), UniProt O60565 25-184); experiment: ELISA
T3 sequence: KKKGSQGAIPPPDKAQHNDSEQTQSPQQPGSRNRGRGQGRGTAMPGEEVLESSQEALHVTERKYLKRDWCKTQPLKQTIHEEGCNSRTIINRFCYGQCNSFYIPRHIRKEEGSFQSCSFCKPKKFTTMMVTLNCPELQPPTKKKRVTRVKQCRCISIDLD

[4] = target: T4, FSTL3 (Homo sapiens (Human), UniProt O95633 27-263); experiment: ELISA
T4 sequence: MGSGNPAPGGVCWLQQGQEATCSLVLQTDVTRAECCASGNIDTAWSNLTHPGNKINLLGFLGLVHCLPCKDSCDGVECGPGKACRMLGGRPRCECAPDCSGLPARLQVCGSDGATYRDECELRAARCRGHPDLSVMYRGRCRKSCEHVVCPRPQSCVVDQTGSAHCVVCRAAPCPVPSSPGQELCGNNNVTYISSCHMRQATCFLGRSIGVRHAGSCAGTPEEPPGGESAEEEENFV

[5] = target: MICA (Homo sapiens (Human), UniProt Q29983 24-307); experiment: ELISA
[6] = target: T5, EV12A (Homo sapiens (Human), UniProt P22794 31-133); experiment: ELISA
T5 sequence: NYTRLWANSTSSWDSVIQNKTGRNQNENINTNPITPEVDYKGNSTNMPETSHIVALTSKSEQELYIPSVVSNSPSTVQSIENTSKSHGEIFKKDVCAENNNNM

[7] = target: T6, M7-1; experiment: scFv-phage ELISA
T6 construct: also called PD1 mutant M7-1

[8] = target: T7, M2; experiment: scFv-phage ELISA
T7 construct: also called PD1 mutant M2

[9] = target: T8, M5-1; experiment: scFv-phage ELISA
T8 construct: also called PD1 mutant M5-1

[10] = target: T9, M5-2; experiment: scFv-phage ELISA
T9 construct: also called PD1 mutant M5-2

[11] = target: T10, M10; experiment: scFv-phage ELISA
T10 construct: also called PD1 mutant M10

[12] = target: T11, M13; experiment: scFv-phage ELISA
T11 construct: also called PD1 mutant M13

[13] = target: T12, ITGA6-Fc; experiment: scFv-phage ELISA
T12 construct: Fc fusion
T12 sequence (P23229 whole entry, species assumed, looked up): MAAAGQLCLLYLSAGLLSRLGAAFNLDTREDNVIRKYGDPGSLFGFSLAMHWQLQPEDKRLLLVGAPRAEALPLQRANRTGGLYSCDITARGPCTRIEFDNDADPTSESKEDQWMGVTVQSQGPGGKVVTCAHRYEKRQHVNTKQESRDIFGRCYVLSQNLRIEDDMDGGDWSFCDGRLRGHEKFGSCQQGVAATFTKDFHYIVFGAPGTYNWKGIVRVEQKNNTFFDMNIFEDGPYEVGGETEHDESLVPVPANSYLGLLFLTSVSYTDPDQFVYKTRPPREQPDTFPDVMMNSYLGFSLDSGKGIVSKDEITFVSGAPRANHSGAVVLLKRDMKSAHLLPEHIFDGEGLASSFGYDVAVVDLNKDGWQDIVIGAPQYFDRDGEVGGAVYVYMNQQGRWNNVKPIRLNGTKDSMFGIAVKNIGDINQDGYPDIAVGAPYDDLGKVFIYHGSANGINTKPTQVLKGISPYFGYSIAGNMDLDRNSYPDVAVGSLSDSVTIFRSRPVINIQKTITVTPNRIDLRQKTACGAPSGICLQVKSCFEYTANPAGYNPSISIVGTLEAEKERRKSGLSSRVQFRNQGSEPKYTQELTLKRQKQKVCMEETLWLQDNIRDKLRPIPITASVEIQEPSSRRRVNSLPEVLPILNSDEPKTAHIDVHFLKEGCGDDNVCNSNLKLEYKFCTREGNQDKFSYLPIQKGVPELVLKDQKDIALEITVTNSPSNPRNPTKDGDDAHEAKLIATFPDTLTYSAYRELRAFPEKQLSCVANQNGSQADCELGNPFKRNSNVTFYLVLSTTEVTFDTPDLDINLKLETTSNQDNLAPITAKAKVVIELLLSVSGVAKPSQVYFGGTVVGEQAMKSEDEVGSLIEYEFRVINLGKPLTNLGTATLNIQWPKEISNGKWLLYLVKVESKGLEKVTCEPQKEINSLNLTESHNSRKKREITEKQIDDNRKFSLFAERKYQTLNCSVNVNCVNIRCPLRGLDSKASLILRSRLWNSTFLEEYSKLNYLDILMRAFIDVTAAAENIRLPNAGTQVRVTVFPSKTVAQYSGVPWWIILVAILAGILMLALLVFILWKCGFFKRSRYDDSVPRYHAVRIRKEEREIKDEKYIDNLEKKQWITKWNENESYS

[14] = target: T13, M7-2; experiment: scFv-phage ELISA
T13 construct: also called PD1 mutant M7-2

[15] = target: human PD-1 (NM_005018.2) over-expressed on cells (human, UniProt Q15116 25-288); experiment: cell-based or functional assay
Chain of human PD-1 (NM_005018.2) over-expressed on cells (Q15116 25-288): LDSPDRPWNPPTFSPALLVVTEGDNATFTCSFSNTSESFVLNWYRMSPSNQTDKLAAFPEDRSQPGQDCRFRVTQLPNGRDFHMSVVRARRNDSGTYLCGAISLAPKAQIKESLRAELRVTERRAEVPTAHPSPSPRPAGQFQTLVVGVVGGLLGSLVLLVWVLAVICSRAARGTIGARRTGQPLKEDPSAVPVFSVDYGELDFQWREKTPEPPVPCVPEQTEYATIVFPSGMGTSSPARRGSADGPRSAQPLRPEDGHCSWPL

Chain of MICA (Q29983 24-307 limits assumed): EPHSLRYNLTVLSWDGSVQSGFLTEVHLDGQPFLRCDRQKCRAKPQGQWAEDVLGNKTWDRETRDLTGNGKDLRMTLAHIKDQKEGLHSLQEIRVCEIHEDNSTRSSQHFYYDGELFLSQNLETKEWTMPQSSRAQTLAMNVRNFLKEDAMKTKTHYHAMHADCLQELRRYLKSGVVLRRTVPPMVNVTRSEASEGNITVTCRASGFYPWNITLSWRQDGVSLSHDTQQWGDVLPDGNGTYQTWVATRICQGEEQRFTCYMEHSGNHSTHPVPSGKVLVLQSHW

Binder | binding result [1] | binding result [2] | binding result [3] | binding result [4] | binding result [5] | binding result [6] | OD490 [7] | OD490 [8] | OD490 [9] | OD490 [10] | OD490 [11] | OD490 [12] | OD490 [13] | OD490 [14] | EC50 [15]
PD1-41C9 (antibody, V domains shown, scFv-phage in the screening ELISA; whole IgG in the other assays) VH: QMQLVESGGGVVQPGRSLRLSCAASGFTFSSYAMHWVRQAPGKGLEWVAVISYDGSNKYYADSVKGRFTISRDNSKNTLYLQMNRLRSEDTAVYYCTTTTFDSWGQGTLITVSS VL: DIVMTQTPLSLPVTPGEAASISCRSSQSLLDSEDGNTYLDWYLQKPGQSPQLLIYTLSHRASGVPDRFSGSGSGTDFTLKISRVAAEDVGLYYCLQRMGFPYTFGQGTKLDIK | no binding (tested: 1 ug/ml) | no binding (tested: 1 ug/ml) | no binding (tested: 1 ug/ml) | no binding (tested: 1 ug/ml) | no binding (tested: 1 ug/ml) | no binding (tested: 1 ug/ml) | 1.2 | 0.8 | 2.8 | 3.6 | 3.4 | 3.6 | 0.5 | 3 | 3.57 nM
PD1-49A2 (antibody, V domains shown, scFv-phage in the screening ELISA; whole IgG in the other assays; also called Parent 49A2) VH: QVQLVESGGGVVQPGRSLRLSCAASGFTFSSYAMHWVRQAPGKGLEWVAVISYDGSNKYYADSVKGRFTISRDNPKNTLYLQMNSLRAEDTAVYYCTTTTFDSWGRGTLVTVSS VL: DIVMTQSPLSLPVTPGEPASISCRSSQSLFDSDDGNTYLDWYLQKPGQSPQLLIYTLSHRASGVPDRFSGSGSGTDFTLKISRVEAEDVGIYYCLQRMGFPYTFGQGTKVEIK | no binding (tested: 1 ug/ml) | no binding (tested: 1 ug/ml) | no binding (tested: 1 ug/ml) | no binding (tested: 1 ug/ml) | no binding (tested: 1 ug/ml) | no binding (tested: 1 ug/ml) | 0.5 | 0.3 | 0.7 | 3.8 | 2.6 | 3.9 | 0.2 | 2.2 | 2.05 nM
PD1-45D6 (antibody, V domains shown, scFv-phage in the screening ELISA; whole IgG in the other assays) VH: QVQLVESGGGVVQPGRSLRLSCAASGFTFSSYAMHWVRQVPGKGLEWVAVISYDGNDKYYADSVKGRFTISRDNSKNTLYLQMNSLRAEDTAVYYCVPTTFEYWGQGSQVTVSS VL: DIVMTQTPLSLPVTPGEAASISCRSSQSLLDSDDGKTYLDWYLQKPGQSPQLLIYTLSYRASGVPDRFSGSGSGTEFNLRISRVEAEDVGIYYCMQRVEFPFTFGQGTKLDIK | no binding (tested: 1 ug/ml) | no binding (tested: 1 ug/ml) | no binding (tested: 1 ug/ml) | no binding (tested: 1 ug/ml) | no binding (tested: 1 ug/ml) | no binding (tested: 1 ug/ml) | 1.3 | 0.4 | 3.8 | 3.9 | 3.9 | 4 | 0.5 | 4 | 1.29 nM
PD1-52E8 (antibody, V domains shown, scFv-phage in the screening ELISA; whole IgG in the other assays) VH: QVQLVQSGGNLVQPGRSLRLSCAASGFTFDDYAMHWVRQAPGKGLEWVSGISWNSGTPGYADSVQGRFTISRDNAKNSLYLQMNSLRAEDTAVYYCARGHNYLDSSYYDYWGQGTLVTVSS VL: SYELTQPLSLSVAPGQTARITCSGDALSKEYSYWYQQKPGQAPVLVMYKDSERPSGIPERFSGSSSGTTVTLTISGVQAEDEADYYCQSVDSSDTSVVFGGGTKLTVL |  |  |  |  |  |  | 1.1 | 0.2 | 0.3 | 3.5 | 1 | 3.9 | 0.1 | 3.9 | 
